Source: patent publication US12072338B2, “Pharmaceutical peptides for the treatment of inflammatory diseases” (PROTAGONISTS LTD., priority 2007, dated 2024)
“Also recorded” adds a separate entry of the source. Where two headings read alike, the source gives them in different places. Ends that are not written are not given here.

Key:
IL-8 = assay: Micro-array analysis of chemokine binding peptides: IL-8; settings: limit = start of the upper 75% of that peptide's response range
Outline: (§1)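 Chemokines printed at 25 and 50 μg/ml on protein microarray slides, blocked, then probed 1 h at RT with peptide-displaying recombinant phage (10^7 pfu/μl). Bound phage detected with mouse anti-M13 then Cy3 anti-mouse IgG. Cy3 fluorescence scanned, reported as relative fluorescence versus chemokine concentration.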

Mig = target: T1, Mig (Homo sapiens, UniProt Q07325); assay: Micro-array analysis of chemokine binding peptides: Mig; settings: limit = start of the upper 75% of that peptide's response range
T1 construct: purchased 300-26
T1 sequence (Q07325 23-125): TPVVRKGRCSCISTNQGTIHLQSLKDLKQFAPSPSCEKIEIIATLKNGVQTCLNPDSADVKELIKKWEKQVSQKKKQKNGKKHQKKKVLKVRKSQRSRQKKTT
Outline: as §1

I-309 = target: T2, I-309 (Homo sapiens, UniProt P22362); assay: Micro-array analysis of chemokine binding peptides: I-309; settings: limit = start of the upper 75% of that peptide's response range
T2 construct: purchased 300-37
T2 sequence (P22362 24-96): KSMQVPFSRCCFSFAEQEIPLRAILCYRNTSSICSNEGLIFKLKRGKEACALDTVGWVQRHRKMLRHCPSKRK
Outline: as §1

MCP-1 = target: T3, MCP-1 (Homo sapiens, UniProt P13500); assay: Micro-array analysis of chemokine binding peptides: MCP-1; settings: limit = start of the upper 75% of that peptide's response range
T3 construct: purchased 300-04
Method: (§2) (1) Printing: Chemokine (CK) solution (in water) was serially diluted with Print Reagent (GenTel BioSurfaces USA) to final concentrations of 50 μg and 25 μg/ml. BSA/BSA-Biotin control solutions (in water) were diluted with Print Reagent to 100 μg/ml. Amplified stock of M13 phage control (M13KEgIII Cloning Vector, New England Biolabs, Cat.No.E8101S) was stored in Tris Buffered Saline (TBS; pH7.5, 4° C.) and diluted with Print Reagent to the working titre (10^8 pfu/μl). An automated spotting robot (16 pin print tool, 0.4 mm head; BioRobotics, UK) was used to print the CK/BSA control/M13 control, 5 repeats per sample (CK 25 μg/ml and 50 μg/ml; BSA 100 μg/ml; M13 20 μl), on PATH Protein Microarray Slides (GenTel, Prod.No. 2-1005/-1025) at […], and 50-70% relative humidity. Printed micro-array slides were stored at Room Temperature (RT) or 4° C. for at least 24 h before use.
(§3) (2) Blocking: Block Buffer (500 μl/partition; PATHblock, GenTel, Prod.No. 2-1014) was applied to the slide for 1 hour at room temp (RT). After removal of Block Buffer, the slide was air dried for 25 minutes;
(§4) (3) Phage Presented Peptide Binding: Amplified recombinant phage stock was stored in TBS and diluted with Wash Buffer to working titer (10^7 pfu/μl). Recombinant phage suspension (300 μl) was applied per partition and incubated at RT for 1 hour with gentle agitation.
(§5) (4) First Washing: The slides were washed twice with Wash Buffer 300 μl/partition).
(§6) (5) Primary Antibody (Ab) Labeling: The slides were incubated with the Primary Ab (1 mg/ml diluted ×2500 (Wash Reagent), 300 μl; Mouse Anti-M13 monoclonal Ab; Amersham Biosciences, UK; Product Code 27-9420-01) for 45 minutes at RT.
(§7) (6) Second Washing: The slides were washed twice with Wash Buffer (300 μl/partition).
(§8) (7) Secondary Ab Labeling: The slides were incubated with Secondary Ab (1.5 mg/ml diluted ×5000 (Wash Reagent), 300 μl; Cy3-conjugated AffiniPure Goat Anti-Mouse IgG; Jackson ImmunoReserch Labs, USA; Product Code 115-165-062).
(§9) (8) Third Washing: The slides were washed twice with Wash Buffer (300 μl/partition).
(§10) (9) Rinse: the slides were rinsed twice with Rinse Buffer (PATHrinse, GenTel, Prod.No. 2-1018) then dried well.
(§11) (10) Scanning: The peptide-bound, labeled slide was scanned (Laser Intensity 80%, Gain 80%, Resolution 10 μm) with a ScanArray Life Scanner (Packard BioChip Technologies, USA).
(§12) (11) Analysis: Quantitative analysis of micro-array was performed by the SpotReader program of Niles Scientific (USA) and presented as Relative Fluorescence (RF) as a function of CK concentration. Micro-array readout (Cy3 fluorescence) was quantified to determine the relative binding affinities of a CBP for the CKs and by inference, the specificity of the CBP for binding to a CK.

MCP-4 = target: T4, MCP-4 (Homo sapiens, UniProt Q99616); assay: Micro-array analysis of chemokine binding peptides: MCP-4; settings: limit = start of the upper 75% of that peptide's response range
T4 construct: purchased 300-24
Outline: as §1

RANTES = target: T5, RANTES (Homo sapiens, UniProt P13501); assay: Micro-array analysis of chemokine binding peptides: RANTES
T5 construct: purchased 300-06
T5 sequence (P13501 24-91): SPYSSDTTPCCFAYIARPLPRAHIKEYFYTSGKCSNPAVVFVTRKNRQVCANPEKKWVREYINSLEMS
Outline: as §1

Eotaxin = target: T6, Eotaxin (Homo sapiens, UniProt P51671); assay: Micro-array analysis of chemokine binding peptides: Eotaxin; settings: limit = start of the upper 75% of that peptide's response range
T6 construct: purchased 300-21
Outline: as §1

Eotaxin 3 = target: T7, Eotaxin 3 (Homo sapiens, UniProt Q9Y258); assay: Micro-array analysis of chemokine binding peptides: Eotaxin 3; settings: limit = start of the upper 75% of that peptide's response range
T7 construct: purchased 300-48
T7 sequence (Q9Y258 24-94): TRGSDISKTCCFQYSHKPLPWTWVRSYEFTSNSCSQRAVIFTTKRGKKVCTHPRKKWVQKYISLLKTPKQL
Outline: as §1

SDF1-α = target: T8, SDF1-α (Homo sapiens, UniProt P48061); assay: Micro-array analysis of chemokine binding peptides: SDF1-α
T8 construct: purchased 300-28a
Method: as §2, §3, §4, §5, §6, §7, §8, §9, §10, §11, §12

SDF1-β = target: T9, SDF1-β (Homo sapiens, UniProt P48061); assay: Micro-array analysis of chemokine binding peptides: SDF1-β
T9 construct: purchased 300-28b
Outline: as §1

TECK = target: T10, TECK (Homo sapiens, UniProt O15444); assay: Micro-array analysis of chemokine binding peptides: TECK
T10 construct: purchased 300-45
T10 sequence (O15444 24-150): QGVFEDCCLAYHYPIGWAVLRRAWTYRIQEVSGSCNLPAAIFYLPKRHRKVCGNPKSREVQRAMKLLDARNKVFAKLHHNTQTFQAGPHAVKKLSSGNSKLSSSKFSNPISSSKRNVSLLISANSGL
Outline: as §1

Fractalkine = target: T11, Fractalkine (Homo sapiens, UniProt P78423); assay: Micro-array analysis of chemokine binding peptides: Fractalkine
T11 construct: purchased 300-31
T11 sequence (P78423 25-100 limits assumed): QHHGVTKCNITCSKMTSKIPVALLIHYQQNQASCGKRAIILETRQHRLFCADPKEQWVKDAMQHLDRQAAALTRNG
Outline: as §1

MIP3-α = target: T12, MIP3-α (Homo sapiens, UniProt P78556); assay: Micro-array analysis of chemokine binding peptides: MIP3-α
T12 construct: purchased 300-29A
Method: as §2, with “use. […]” for “use.”
as §12

Exodus-2 = target: T13, Exodus-2 (Homo sapiens, UniProt O00585); assay: Micro-array analysis of chemokine binding peptides: Exodus-2
T13 construct: purchased 300-35
T13 sequence (O00585 24-134): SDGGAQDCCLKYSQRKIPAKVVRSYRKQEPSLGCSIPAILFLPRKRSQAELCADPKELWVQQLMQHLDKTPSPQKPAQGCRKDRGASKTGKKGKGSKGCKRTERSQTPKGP
Outline: as §1

SDF1 = assay: Micro-array analysis of chemokine binding peptides: SDF1 (isoform not given)
Method: as §2, §3, §4, §5, §6, §7, §8, §9, §10, §11, §12

[1] = test system: healthy, non-disease-induced rats; assay: Effect on healthy, non-disease-induced rats; format: in vivo, rat; settings: 30 ug/injection IP on 12 consecutive days
Method: P15 was injected IP (30 ug/injection) on 12 consecutive days to determine if this anti-inflammatory peptide had any effect at a therapeutic dose on healthy, non-disease-induced rats.

SDF1, sequence (P48061 22-89 limits assumed): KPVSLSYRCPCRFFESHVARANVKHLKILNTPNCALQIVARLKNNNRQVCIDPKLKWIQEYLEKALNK
T8 sequence (P48061 22-89 limits assumed): as above
T4 sequence (Q99616 17-98): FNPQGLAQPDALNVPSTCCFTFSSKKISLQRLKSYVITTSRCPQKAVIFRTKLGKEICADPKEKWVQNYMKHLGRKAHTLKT
IL-8, sequence (P10145 28-99 limits assumed): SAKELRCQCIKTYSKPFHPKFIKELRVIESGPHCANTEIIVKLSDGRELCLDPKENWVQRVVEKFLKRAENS
T12 sequence (P78556 27-96): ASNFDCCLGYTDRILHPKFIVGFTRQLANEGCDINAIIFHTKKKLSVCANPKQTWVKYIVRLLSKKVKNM
T9 sequence (P48061 22-93): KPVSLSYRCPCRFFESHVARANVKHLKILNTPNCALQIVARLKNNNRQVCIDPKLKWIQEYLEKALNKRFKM
T3 sequence (P13500 24-99): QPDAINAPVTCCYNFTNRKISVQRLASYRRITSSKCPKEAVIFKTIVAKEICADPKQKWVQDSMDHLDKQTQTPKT

binding to IL-8 with relatively high affinity (Relative Fluorescence Units) (IL-8)	binding to Mig with relatively high affinity (Relative Fluorescence Units) (Mig)	binding to I-309 with relatively high affinity (Relative Fluorescence Units) (I-309)	binding to MCP-1 with relatively high affinity (Relative Fluorescence Units) (MCP-1)	binding to MCP-4 with relatively high affinity (Relative Fluorescence Units) (MCP-4)	binding to RANTES, stated in words (RANTES)	binding to RANTES with relatively high affinity (Relative Fluorescence Units) (RANTES; limit = start of the upper 75% of that peptide's response range)	binding to Eotaxin with relatively high affinity (Relative Fluorescence Units) (Eotaxin)	binding to Eotaxin 3 with relatively high affinity (Relative Fluorescence Units) (Eotaxin 3)	binding to SDF1-α, stated in words (SDF1-α)	binding to SDF1-β, stated in words (SDF1-β)	binding to TECK, stated in words (TECK)	binding to Fractalkine, stated in words (Fractalkine)	binding to Fractalkine, stated in words (Fractalkine; listed as P5)	binding to MIP3-α, stated in words (MIP3-α)	binding to Exodus-2, stated in words (Exodus-2)	binding to SDF1 (isoform not given), stated in words (SDF1)	Substance	physiological or behavioral effect on healthy rats [1]
> 2,500 RFU	> 2,500 RFU	> 2,500 RFU	> 2,500 RFU	> 2,500 RFU	bound specifically and differentially	> 2,500 RFU	> 2,500 RFU	> 2,500 RFU	bound	bound	bound	bound	bound specifically and differentially	bound	bound	bound specifically and differentially	LFGNDCE [CBP5]	
																	WVFGSGLCK [Ph-p15, WVFGSGLCK]	no apparent effect; also recorded: no obvious physiological or behavioral effect
